Assay: yeast display, Sf9 membrane polyspecificity reagent, FACS + sequencing; frameworks hold sequencing errors
Method in brief: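 Synthetic nanobody libraries on Saccharomyces cerevisiae BJ5465 were galactose-induced for 36–48 hours, stained 1 hour at 4 °C with 10% biotinylated, detergent-solubilized Sf9 membrane reagent and enriched on streptavidin microbeads. FACS then separated cells into low and high (top ~1%) gates by anti-HA (expression) and streptavidin (reagent binding) fluorescence. Genes were colony-PCR amplified, MiSeq 2 × 250 sequenced and CDR-length filtered. A clone's polyreactivity label is that of its gate of origin.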

Sequence | polyreactivity (PSR sort gate)
QVQLVESGGGLVQAGGSLRLSCAASGFIFSGYAMGWYRQAPGKERELVAAISGGGSTYYADSVKGRFTSSRDNAKNTVYLQMNNLKPEETADYYCAARVYWSVRYYYWGQGTQVTVSS | high polyreactivity
QVQLVESGGGLVQAGGSLRLSCAASGFIFSGYAMGWYRQAPGKERELVAAISTRGGRTYYADSVKGRFTISRDNAKNTVYLQMNSLKPEDTAVYYCAADSLYPELDYWGQGTQVTVSS | high polyreactivity
QVQLVESGGGLVQAGGSLRLSCAASGFIFSHNAMGWYRQAPGKERELVAAIDYIDGSTYYADSVKGRFTISRDNAKNTVYLQMNSLKPEDTAVYYCAADGLFYWWHYGYWGQGTQVTVSS | low polyreactivity
QVQLVESGGGLVQAGGSLRLSCAASGFIFSHNAMGWYRQAPGKERELVAAIDYIDGSTYYADSVKGRFTISRDNAKYTVYLQMNSLIPEDTAVYDCAADGLFYWWHYGYWGQGSQVTVSS | low polyreactivity
QVQLVESGGGLVQAGGSLRLSCAASGFIFSHYAMGWYRQSPGKEREFVATSSKRGGSTTYADSVKGRFTISRDNAKNTVYLQMNSLKPEDTAVYYCAADRYRSFERYDYWGQGTQVTVSS | high polyreactivity
QVQLVESGGGLVQAGGSLRLSCAASGFIFSKNAMGWYRQAPGKERELVARITRRVGSTYYADSVKGRFTISRDNAKNTVYIQMNSLKPEDTAVYYCAVLPRVKDGTGGDYWGQGTQVTVSS | high polyreactivity
QVQLVESGGGLVQAGGSLRLSCAASGFIFSKYAMGWYRQAPGKERELVAAISTSGASTYYADSVKGRFTISRDNAKNTVYLQMNSLKPEDTAVYYCNVPRYSPIRNYDYWGQGTQVTVSS | high polyreactivity
QVQLVESGGGLVQAGGSLRLSCAASGFIFSKYGMGWYRQAPGKERELVAAISIRGGNTYYADSVKGRFTISRDNAKNTFYLQMYSLKPEDTAVYYCAAGLRAYPYGTRSGVYYYWGQGTQVTVSS | high polyreactivity
QVQLVESGGGLVQAGGSLRLSCAASGFIFSLYAMGWYRQAPGKERELVAAITRSGGSTYYADSVKGRFTISRDNAKNTVYLQMNSLKPEDTAVYYCAASRGRGGYGFDYWGQGTQVTVSS | high polyreactivity
QVQLVESGGGLVQAGGSLRLSCAASGFIFSNNAMGWSRQAPGKERELVAAITSSGGRTYYADSVKGRFTISRDNAKNTVYLLMNSLKPEDTAVYYCAAARYDIMGYWGQGTQVTVSS | high polyreactivity
QVQLVESGGGLVQAGGSLRLSCAASGFIFSNYAMGWYRQAPGKERELVARISSSGGSTYYADSVKVRFTISRDIAKNTVYLQMNSLKPEVTAVYYCAAGFNLPAWGWAYYYWGQGTQVTVSS | high polyreactivity
QVQLVESGGGLVQAGGSLRLSCAASGFIFSPYAMGWYRQAPGKVRELVAAISRRGGSTYYADSVKGRFTISRDNAKNTVYLQMNSLKPEDTAVYYCAAVYGASQVDYDYWGQGTQVTVSS | high polyreactivity
QVQLVESGGGLVQAGGSLRLSCAASGFIFSQYAMGWYRQAPGKERELVAAISYRGGSTYYADSVKGRFTISRDNAKNTVYLQMNSLKPEDTAVYYCNAGRRSQTYLGTCDYWGQGTQVTVSS | high polyreactivity
QVQLVESGGGLVQAGGSLRLSCAASGFIFSRNAMGWYRQAPGNERDLVAAISLRGGSTYYTDSVKGRFTISRDNAKNTVYLQMISLKPEDTAVYYCAAVSGRYLTRDGYWGQGTQVTVSS | high polyreactivity
QVQLVESGGGLVQAGGSLRLSCAASGFIFSRYAKGWSRPAPGKERELVAAITRGGGDTYYADSVKGRFTISRDNAKNTVYLQMNSLKPEDTAVYYCNARYRRYTTRFGAMDYWGQGTQVTVSS | high polyreactivity
QVQLVESGGGLVQAGGSLRLSCAASGFIFSRYAMGCYSPAPGKVIELVAAISSRGGSTYYADSVKGRFTISRDNAKNTVYLQMNSLKPEDTAVYYCAARGPTFGVDYGYWGQGTQVTLSS | high polyreactivity
QVQLVESGGGLVQAGGSLRLSCAASGFIFSRYAMGWYRQAPGKERELGATINTNGGSTYYAYSVKGRFTISRDNAKNTVYLQMNSLKPEDTAVYYCNAKYQALQRSWGRYDYWGQGTQVTVSS | low polyreactivity
QVQLVESGGGLVQAGGSLRLSCAASGFIFSRYAMGWYRQAPGKERELVAAITSGGGTYSADSVKGRFTISRDNAKNTVYLQMNSLKPEDTAVYYCAAGYGPTSTSSVRITAGDHWGQGTQVTVSS | low polyreactivity
QVQLVESGGGLVQAGGSLRLSCAASGFIFSRYAMGWYRQAPGKERELVASISWGGGSTSYADSVKGRFTISRDNAKNTVYLQMNSLKPEDTAVYYCNARVRSHRFNYWGQGTQVTVSS | high polyreactivity
QVQLVESGGGLVQAGGSLRLSCAASGFIFSRYVMGWYRQAPGKERELVAAISSSGGRTYYADSVKGRFTISRDNAKNTVYLQMNCLKPEDTAVYYCAAKPLPGGADTTSPRYDYWGQGTQVTVSS | high polyreactivity

Sequence | polyreactivity (PSR sort gate)
QVQLVESGGGLVQAGGSLRLSCAASGFIFSSIAMGWYRPAPGKEREFVAAITSGGITYYADSLKGRFTISRDNAKNTVYLQMNSLKPEDTAVYYCAAVLSYQTPKYYRWRYGYWGQGTQVTVSS | low polyreactivity
QVQLVESGGGLVQAGGSLRLSCAASGFIFSSNAMGWYRQAPGKEREFVAAISFRGGTTYYADSVKGRFTISRDNAKNTVYLQMKSLKPEDTAVYYCNAVRWRSGRWWWYDYWGQGTQVTVSS | low polyreactivity
QVQLVESGGGLVQAGGSLRLSCAASGFIFSSNAMGWYRQAPGKERELVARITWSDGSTYYADSVKGRFTISRDNAKNTVYLQMNSLKPEDTAVYYCAKGRDATHYEYYLYSMDYWGQGTQVTVSS | low polyreactivity
QVQLVESGGGLVQAGGSLRLSCAASGFIFSSYALGSYRQAPGKERELVAAIDLSGDSTYYADSVKGLFTISRDNAKNTVYLQMNSVKPEDTAVYYCAAQYYDYWYDSDYWGQGTQVTVSS | high polyreactivity
QVQLVESGGGLVQAGGSLRLSCAASGFIFSSYAMGWYRQAPGKERELVAAISRSGGRTNYADSVKGRFTISRDNAKNTVYLQMNSLKPEDTAVYYCAAGRWWVYRYARYYYWGQGTQVTVSS | high polyreactivity
QVQLVESGGGLVQAGGSLRLSCAASGFIFSSYAMGWYRQAPGKERELVAAISRSGGRTYYADSVKGRFTISRDNAKNTVYLQMNSLKPEDTAVYYCAAKRWWQYYWGQGTQVTVSS | high polyreactivity
QVQLVESGGGLVQAGGSLRLSCAASGFIFSSYAMGWYRQAPGKERELVAVITRSGRRTYYADSVKGRFTISRDNAKNTVYLQMNSLKPEDTAVYYCNATLPNEVAPNDYWGQGTQVTVSS | high polyreactivity
QVQLVESGGGLVQAGGSLRLSCAASGFIFSSYGMGWYRQAPGKERELVADISGGGSTNYADSVKGRFTISRDNAKNTVYLQMNSLKPEDTAVYYCNAQLIRSAAYDYWGQGTQVTVSS | low polyreactivity
QVQLVESGGGLVQAGGSLRLSCAASGFIFSTYAMGWYRQAPGKERELVAAITNSGGSTYYADSVKGRFTISRDNAKNTVYLQMNSLKPEDTAVYYCARRRSYRDNYWGQGTQVTVSS | high polyreactivity
QVQLVESGGGLVQAGGSLRLSCAASGFIFSWYDMGWYRQAPGKERELVAAISYSGSNTYYADSVKGRFTISRDNAKNTVYLQMNSLKPEDTAVYYCAATLGSRWAIYDYWGQGTQVTVSS | high polyreactivity
QVQLVESGGGLVQAGGSLRLSCAASGFIFSYNAMGWYRQAPGKERELVATITRRGGGTTYADSVKGRFTISRDNAKNTVYLQMNSLKPEDTAGYYCNRDDNRKHSFGSVGYDYWGQGTQVTVSS | low polyreactivity
QVQLVESGGGLVQAGGSLRLSCAASGFIFSYYAMGWYRPAPGKEREFVAAISRRGGSTYYADSVKGRFTISRDNAKNTVYLQMNSLKPEDTAVFYCARRRTSTAVREHYYRDWYGYDFWGQGTQVTVSS | high polyreactivity
QVQLVESGGGLVQAGGSLRLSCAASGFIFSYYAMGWYRQAPGKERELVAAINWSGGSTYYADSVKGRFTISRDNAKNTVYLQMNSLKPEDTAVYYCAAYSSWHPYDYWGQGTQVTVSS | high polyreactivity
QVQLVESGGGLVQAGGSLRLSCAASGFIFSYYAMGWYRQAPGKERELVAAISGRGGSTYYADSVKGRFTISRDNAKNTVYLQMNSLQPEDTAVYYCAADSPWGGGYFVLYNYWGQGTQVTVSS | low polyreactivity
QVQLVESGGGLVQAGGSLRLSCAASGFIFSYYAMGWYRQAPGKERELVAAISGSGGSTYYADSVKGRFTISRDNAKNTVYLQMNSLKPEDTAVYYCAAVSSYSRVYYWGQGTQVTVSS | high polyreactivity
QVQLVESGGGLVQAGGSLRLSCAASGFIFSYYAMGWYRQAPGKERELVAAITVTGGNTYYADSVKGRFTISRDNAKNTVYLQMNSLKPEDTAVYYCAAVVRGPGVSVYYWGQGTQVSVSS | low polyreactivity
QVQLVESGGGLVQAGGSLRLSCAASGFIFSYYAMGWYRQAPVKERELVAAISSSGGTTYADSVKGRFTISRDNAKNTFYLQMNSLKPEDTAVYYCARVQYWFYKPMYYWGQGTQVTVSS | high polyreactivity
QVQLVESGGGLVQAGGSLRLSCAASGFIFSYYTMGWYRQAPGKEWEVVAAIRSSGGSTYADSVKGRFTISRDNAKNTVYLQKNSLKPEDTAVYYCAAVQTWRWVYARDYWGQGTQVTVSS | high polyreactivity
QVQLVESGGGLVQAGGSLRLSCAASGFIFSYYVMGWYRQAPGKERELVAGISWNGGRTYYADSVKGRFTISRDNAKNTVYFQMNSLKPEDTAVYYCAKDPYSKRRASSGYDYWGQGTQVTVSS | low polyreactivity
QVQLVESGGGLVQAGGSLRLSCAASGFIFSYYVMGWYRQAPGKERELVASISARVGSTYYADSVKGRFTISRDNAKNTVYLQMNSLKPEDTAVYYCNTARVKYRWYNYWGQGTQVTVSS | high polyreactivity

— the nanobody polyreactivity screen of Harvey et al. (2022)
